# Biological target: fluorogenic OmpT peptide substrate (BODIPY / trimethylrhodamine)
# Assay: cell-based or functional assay
substance,measurement,value
"OmpT protease, wild type, expressed from multicopy plasmid pML19 in E. coli UT5600 (from UniProt P09169 21-317) (enzyme)",mean fluorescence intensity of cells by FACS after exposure to the fluorogenic substrate,30 times

# — US20030036092A1
